Molecular target: SARS-CoV-2 BA.4/5+K444T Spike on pseudovirus (SARS-CoV-2), P0DTC2
Experiment: cell-based or functional assay

B1: AB-1 (antibody, V domains shown)
VH: EVQLVESGAEVKKPGESLKISCKGSGYTFTRYWIGWVRQMPGKGLEWMGIIYPGDSDVRYSPSFQGHVTISADKSISTAYLQWNSLKASDTAMYYCARLPQYCSKGVCYRWFDPWGQGTLVTVSS
VL: EIVLTQSPSSVSASVGDRVTITCRASQGISSWLAWYQQKPGKAPKLLIYAASSLQSGVPSRFSGSGSGTDFTLTISSLQPEDFATYYCQQGHSFPYTFGQGTNLEIK
Binder B1 has an IC50, pseudovirus neutralization of 9.4 ng/mL.

Reference: patent US20240360203A1
